Assay results as given in article PMC6053527 (Frontiers in Plant Science, 2018).
Values belong to the molecule of their own block, whether it stands above or below them.

Assays:
SyMDH [1] = target: T1, SyMDH (Synechocystis sp. PCC 6803, UniProt Q55383); test: spectrophotometric assay at […] nm; fit to modified Michaelis-Menten equation; type: biochemical; conditions: substrate inhibition by NAD+; oxidative reaction, 4.0 mM malate, 100 mM potassium phosphate pH 8.0
T1 construct: gene mdh; full ORF in pGEX5X-1, N-terminal GST tag kept, E. coli expression, glutathione-Sepharose purification
T1 sequence (Q55383 1-324): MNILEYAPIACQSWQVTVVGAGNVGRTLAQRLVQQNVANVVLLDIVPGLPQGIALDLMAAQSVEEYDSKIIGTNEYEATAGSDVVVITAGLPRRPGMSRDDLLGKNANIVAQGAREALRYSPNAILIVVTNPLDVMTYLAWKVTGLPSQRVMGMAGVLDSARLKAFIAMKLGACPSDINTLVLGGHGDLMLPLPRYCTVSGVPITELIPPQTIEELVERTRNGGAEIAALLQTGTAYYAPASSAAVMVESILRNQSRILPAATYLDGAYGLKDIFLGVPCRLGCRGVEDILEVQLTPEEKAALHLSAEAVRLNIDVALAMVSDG

SyMDH [2] = target: T1, SyMDH; test: spectrophotometric assay at […] nm with effector; type: biochemical; conditions: read-out: % activity at 1 mM
purified protein [3] = substrate: O=C(O)C[C@H](O)C(=O)O; test: purified protein; conditions: oxidative reaction, 8.0 mM NAD+, 100 mM potassium phosphate pH 8.0
purified protein [4] = substrate: NC(=O)c1ccc[n+]([C@@H]2O[C@H](COP(=O)(O)OP(=O)(O)OC[C@H]3O[C@@H](n4cnc5c(N)ncnc54)[C@H](O)[C@@H]3O)[C@@H](O)[C@H]2O)c1; test: purified protein; type: biochemical, Synechocystis sp. PCC 6803; conditions: oxidative reaction, 4.0 mM malate, 100 mM potassium phosphate pH 8.0; pH 8.0
purified protein [5] = substrate: O=C(O)CC(=O)C(=O)O; test: purified protein; type: biochemical, Synechocystis sp. PCC 6803; conditions: reductive reaction, 0.1 mM NADH, 100 mM potassium phosphate pH 6.5; no added effector; pH 6.5
purified protein [6] = substrate: NC(=O)C1=CN([C@@H]2O[C@H](COP(=O)(O)OP(=O)(O)OC[C@H]3O[C@@H](n4cnc5c(N)ncnc54)[C@H](O)[C@@H]3O)[C@@H](O)[C@H]2O)C=CC1; test: purified protein; type: biochemical, Synechocystis sp. PCC 6803; conditions: reductive reaction, 0.1 mM oxaloacetate, 100 mM potassium phosphate pH 6.5; pH 6.5

Ki (SyMDH [1]): 14.5 mM
Molecule: NC(=O)c1ccc[n+]([C@@H]2O[C@H](COP(=O)(O)OP(=O)(O)OC[C@H]3O[C@@H](n4cnc5c(N)ncnc54)[C@H](O)[C@@H]3O)[C@@H](O)[C@H]2O)c1 [NAD^+]

activity at 1000 µM (SyMDH [2]): ~170%
Molecule: O=C(O)/C=C/C(=O)O [fumarate]

B1: SyMDH (Synechocystis sp. PCC 6803 substr. Kazusa) (protein)
chain: T1 sequence (Q55383 1-324)
notes: full ORF in pGEX5X-1, N-terminal GST tag kept, E. coli expression, glutathione-Sepharose purification
Km (purified protein [3]): 2600 µM
kcat (purified protein [3]): 0.43 s⁻¹
Km (purified protein [4]): 580 µM
kcat (purified protein [4]): 0.21 s⁻¹
Km (purified protein [5]): 12 µM
kcat (purified protein [5]): 0.71 s⁻¹
Km (purified protein [6]): 30 µM
kcat (purified protein [6]): 0.97 s⁻¹
